Measured values: patent publication US20230265124A1 (ARIZONA BOARD OF REGENTS ON BEHALF OF THE UNIVERSITY OF …, published 2023)
Bridges are numbered along the chain shown (N, C = ends). Where no end group is shown, it is not given here. [ ]: non-standard residue; d: D form. glucose = glucose (covalently linked to the residue side chain); Dap = NC[C@H](N)C(=O)O; Aib = CC(C)(N)C(=O)O

B1: 2LS118-6 (peptide)
peptide: DYIQN[Dap]PLGS(glucose)S(glucose)-NH2
modifications: lactam 1-6
notes: Synthetic cyclic glycopeptide: Asp-Tyr-Ile-Gln-Asn-Dap-Pro-Leu-Gly-(SerGlc)2-CONH2, cyclized AA1-AA6
B2: 2LS118-3 (peptide)
peptide: [Dap]YIQNDPLG-NH2
modifications: lactam 1-6; N-terminus assumed
SMILES: CC[C@H](C)[C@@H]1NC(=O)[C@H](Cc2ccc(O)cc2)NC(=O)[C@@H](N)CNC(=O)C[C@@H](C(=O)N2CCC[C@H]2C(=O)N[C@@H](CC(C)C)C(=O)NCC(N)=O)NC(=O)[C@H](CC(N)=O)NC(=O)[C@H](CCC(N)=O)NC1=O
B3: 2LS118-5 (peptide)
peptide: DYIQN[Dap]PLGS(glucose)-NH2
modifications: lactam 1-6
notes: Synthetic cyclic glycopeptide: Asp-Tyr-Ile-Gln-Asn-Dap-Pro-Leu-Gly-SerGlc-CONH2, cyclized AA1-AA6
B4: SSoxy1 (peptide)
peptide: DYIQN[Dap]PLS(lactose)-NH2
modifications: lactam 1-6
notes: Synthetic cyclic glycopeptide: Asp-Tyr-Ile-Gln-Asn-Dap-Pro-Leu-SerLact-CONH2, cyclized AA1-AA6
B5: 2LS118-4 (peptide)
peptide: DYIQN[Dap]PLS(glucose)-NH2
modifications: lactam 1-6
notes: Synthetic cyclic glycopeptide: Asp-Tyr-Ile-Gln-Asn-Dap-Pro-Leu-SerGlc-CONH2, cyclized AA1-AA6; also called compound 2LS118-4
B6: 2LS118-2 (peptide)
peptide: EYIQN[Dap]PLG-NH2
modifications: lactam 1-6; N-terminus assumed
SMILES: CC[C@H](C)[C@@H]1NC(=O)[C@H](Cc2ccc(O)cc2)NC(=O)[C@@H](N)CCC(=O)NC[C@@H](C(=O)N2CCC[C@H]2C(=O)N[C@@H](CC(C)C)C(=O)NCC(N)=O)NC(=O)[C@H](CC(N)=O)NC(=O)[C@H](CCC(N)=O)NC1=O
notes: Synthetic cyclic oxytocin analogue: Glu-Tyr-Ile-Gln-Asn-Dap-Pro-Leu-Gly-CONH2, cyclized AA1-AA6
B7: 2LS118-1 (peptide)
peptide: DYIQN[Dap]PLG-NH2
modifications: lactam 1-6; N-terminus assumed
SMILES: CC[C@H](C)[C@@H]1NC(=O)[C@H](Cc2ccc(O)cc2)NC(=O)[C@@H](N)CC(=O)NC[C@@H](C(=O)N2CCC[C@H]2C(=O)N[C@@H](CC(C)C)C(=O)NCC(N)=O)NC(=O)[C@H](CC(N)=O)NC(=O)[C@H](CCC(N)=O)NC1=O
notes: Synthetic cyclic oxytocin analogue: Asp-Tyr-Ile-Gln-Asn-Dap-Pro-Leu-Gly-CONH2, cyclized AA1-AA6; also called compound 2LS118-1
B8: SSoxy4 (peptide)
peptide: EYIQN[Dap]PLS(glucose)-NH2
modifications: lactam 1-6
notes: Synthetic cyclic glycopeptide: Glu-Tyr-Ile-Gln-Asn-Dap-Pro-Leu-SerGlc-CONH2, cyclized AA1-AA6
B9: SSoxy3 (peptide)
peptide: DYIQN[Dap]P[Aib]S(glucose)-NH2
modifications: lactam 1-6
notes: Synthetic cyclic glycopeptide: Asp-Tyr-Ile-Gln-Asn-Dap-Pro-Aib-SerGlc-CONH2, cyclized AA1-AA6
B10: SSoxy5 (peptide)
peptide: EYIQN[Dap]P[Aib]S(glucose)-NH2
modifications: lactam 1-6
notes: Synthetic cyclic glycopeptide: Glu-Tyr-Ile-Gln-Asn-Dap-Pro-Aib-SerGlc-CONH2, cyclized AA1-AA6
B11: SSoxy6 (peptide)
peptide: EYIQN[Dap]P[Aib]GS(glucose)-NH2
modifications: lactam 1-6
notes: Synthetic cyclic glycopeptide: Glu-Tyr-Ile-Gln-Asn-Dap-Pro-Aib-Gly-SerGlc-CONH2, cyclized AA1-AA6
B12: SSoxy2 (peptide)
peptide: DYIQN[Dap]PLGS(lactose)-NH2
modifications: lactam 1-6
notes: Synthetic cyclic glycopeptide: Asp-Tyr-Ile-Gln-Asn-Dap-Pro-Leu-Gly-SerLact-CONH2, cyclized AA1-AA6

Target: T1, human Mu Opioid Receptor (MOR) (human, UniProt P35372 1-400)
T1 construct: whole, on cells; also called MOR-CHO(PE)
T1 sequence (P35372 whole entry): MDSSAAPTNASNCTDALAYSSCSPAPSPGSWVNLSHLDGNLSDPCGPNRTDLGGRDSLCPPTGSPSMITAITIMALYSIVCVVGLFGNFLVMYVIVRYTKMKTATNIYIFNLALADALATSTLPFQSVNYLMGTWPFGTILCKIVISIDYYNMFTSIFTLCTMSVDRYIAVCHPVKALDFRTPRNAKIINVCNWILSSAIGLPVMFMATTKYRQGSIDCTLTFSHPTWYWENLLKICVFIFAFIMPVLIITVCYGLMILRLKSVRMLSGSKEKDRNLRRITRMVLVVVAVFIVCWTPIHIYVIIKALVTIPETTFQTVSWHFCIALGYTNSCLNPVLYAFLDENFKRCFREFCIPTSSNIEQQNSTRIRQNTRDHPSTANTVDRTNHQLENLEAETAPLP
Assay: competition binding against [3H]diprenorphine on MOR-CHO(PE) membranes
Procedure: Competition Binding at MOR-CHO(PE) Presence of [3H]Diprenorphine: The compounds were also tested for off-target binding to the human Mu Opioid Receptor (MOR), also expressed in CHO cells. Briefly, the experiment involved: Protein: MOR-CHO(PE) Passage: 16; previously frozen cell pellets used and prepared. Protein 15 ug/well used. Serial dilution of compounds and Naloxone(control) used. Total binding absence of compound used, 10uM Naloxone used for nonspecific binding. Each well contained membrane 15 ug/well protein and 2.48 nM Radioligand final conc. Incubated 1 hour in R/T; harvested on GF/B filter, dried O/N. Data are normalized to % Specific binding. MOR-CHO(PE) cell Kd:5.27±2.39 nM. Data are expressed as mean of a single experiment, performed in triplicate. Vehicle contained 0.1% DMSO and 0.1% BSA. (Radioligand:#23067 Lot:2548344 NET: 1121250UC). Table 1 below also summarizes overall MOR binding profile of cyclic oligopeptides of the invention compared to naloxone.

Row | Binder | IC50 | Ki
1 | B1 | > 2.5 µM | > 2.5 µM
2 | B2 | > 2.5 µM | > 2.5 µM
3 | B3 | > 2.5 µM | > 2.5 µM
4 | B4 | > 2.5 µM | > 2.5 µM
5 | B5 | > 2.5 µM | > 2.5 µM
6 | B6 | > 2.5 µM | > 2.5 µM
7 | B7 | > 2.5 µM | > 2.5 µM
8 | B8 | > 2.5 µM | > 2.5 µM
9 | B9 | > 2.5 µM | > 2.5 µM
10 | B10 | > 2.5 µM | > 2.5 µM
11 | B11 | > 2.5 µM | > 2.5 µM
12 | B12 | > 2.5 µM | > 2.5 µM
